T1: collagenase-3 receptor (170 kDa protein) of mouse embryo fibroblasts MEF-1 and MEF-2 (mouse, UniProt Q64449 31-1479)
T1 construct: whole, on cells
T1 sequence (looked up): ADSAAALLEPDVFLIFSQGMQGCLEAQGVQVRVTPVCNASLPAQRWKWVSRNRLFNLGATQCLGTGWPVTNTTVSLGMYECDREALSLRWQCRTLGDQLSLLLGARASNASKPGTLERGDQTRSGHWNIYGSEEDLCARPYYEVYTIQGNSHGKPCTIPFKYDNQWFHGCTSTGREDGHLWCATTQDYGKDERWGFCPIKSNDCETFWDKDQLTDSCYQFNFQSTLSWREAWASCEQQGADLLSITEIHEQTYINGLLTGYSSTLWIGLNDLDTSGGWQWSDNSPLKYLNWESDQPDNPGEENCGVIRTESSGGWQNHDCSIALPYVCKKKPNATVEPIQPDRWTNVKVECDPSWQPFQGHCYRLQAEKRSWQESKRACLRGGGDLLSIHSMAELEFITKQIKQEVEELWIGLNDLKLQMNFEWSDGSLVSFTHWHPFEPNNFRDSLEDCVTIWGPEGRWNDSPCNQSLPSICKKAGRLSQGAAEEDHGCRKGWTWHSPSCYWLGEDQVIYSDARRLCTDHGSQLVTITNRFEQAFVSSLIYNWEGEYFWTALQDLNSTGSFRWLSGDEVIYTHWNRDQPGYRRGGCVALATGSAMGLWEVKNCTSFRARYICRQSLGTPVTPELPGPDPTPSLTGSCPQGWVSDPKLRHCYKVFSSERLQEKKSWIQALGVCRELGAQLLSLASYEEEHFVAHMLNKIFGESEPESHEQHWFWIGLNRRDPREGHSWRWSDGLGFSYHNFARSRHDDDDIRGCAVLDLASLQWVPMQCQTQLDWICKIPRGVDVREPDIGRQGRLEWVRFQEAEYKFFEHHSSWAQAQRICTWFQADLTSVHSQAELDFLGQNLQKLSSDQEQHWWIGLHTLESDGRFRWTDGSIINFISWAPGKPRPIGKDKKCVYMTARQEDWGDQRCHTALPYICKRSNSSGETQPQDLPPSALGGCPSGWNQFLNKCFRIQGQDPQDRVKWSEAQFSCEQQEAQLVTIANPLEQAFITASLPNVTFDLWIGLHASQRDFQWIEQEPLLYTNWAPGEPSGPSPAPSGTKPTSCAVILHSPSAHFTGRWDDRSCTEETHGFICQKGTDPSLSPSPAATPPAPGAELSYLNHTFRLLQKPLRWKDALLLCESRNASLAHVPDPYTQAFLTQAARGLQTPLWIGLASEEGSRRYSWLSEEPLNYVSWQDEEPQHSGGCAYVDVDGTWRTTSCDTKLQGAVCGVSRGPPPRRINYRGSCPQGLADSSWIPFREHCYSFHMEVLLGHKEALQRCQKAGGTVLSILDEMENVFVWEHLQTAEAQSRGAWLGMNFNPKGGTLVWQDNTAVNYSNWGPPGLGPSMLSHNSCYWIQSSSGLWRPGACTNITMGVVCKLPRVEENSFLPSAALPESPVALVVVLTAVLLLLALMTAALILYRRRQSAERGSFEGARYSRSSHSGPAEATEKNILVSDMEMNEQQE


Columns and labels:
[1] = target: T1, collagenase-3 receptor (170 kDa …); experiment: competition with ^125I mouse collagenase-3 on MEF-2 (LRP null) cells; 200-, 400- and 800-fold excess of competitor
Text: This sequence corresponds to a published low density lipoprotein receptor-related protein consensus binding sequence.

[2] = target: T2, rat collagenase-3 receptor (170 kDa protein) of UMR 106-01 rat osteosarcoma cells and other rat cells (rat); experiment: from the Scatchard analysis on UMR 106-01 cells
T2 construct: whole, on cells; on blotted cell membranes in the ligand blots; also called collagenase receptor; rat collagenase receptor

[3] = target: T2, rat collagenase-3 receptor (170 kDa …); experiment: Scatchard analysis of ^125I-mMMP-13 binding to UMR106-01 cells; high affinity site (ostensibly the collagenase-3 receptor)
[4] = target: T3, low density lipoprotein receptor-related protein of rat cells (UMR 106-01, normal rat osteoblasts) (rat); experiment: Scatchard analysis of ^125I-mMMP-13 binding to UMR106-01 cells; lower affinity site (ostensibly the low density lipoprotein receptor-related protein)
T3 construct: whole, on cells; On blotted membranes in ligand and Western blots; also called LRP; 600 kDa protein

[5] = target: T3, low density lipoprotein …; experiment: computer analysis of ^125I-mMMP-13 binding to UMR106-01 cells; lower affinity site

T3 sequence (G3V928 20-3944): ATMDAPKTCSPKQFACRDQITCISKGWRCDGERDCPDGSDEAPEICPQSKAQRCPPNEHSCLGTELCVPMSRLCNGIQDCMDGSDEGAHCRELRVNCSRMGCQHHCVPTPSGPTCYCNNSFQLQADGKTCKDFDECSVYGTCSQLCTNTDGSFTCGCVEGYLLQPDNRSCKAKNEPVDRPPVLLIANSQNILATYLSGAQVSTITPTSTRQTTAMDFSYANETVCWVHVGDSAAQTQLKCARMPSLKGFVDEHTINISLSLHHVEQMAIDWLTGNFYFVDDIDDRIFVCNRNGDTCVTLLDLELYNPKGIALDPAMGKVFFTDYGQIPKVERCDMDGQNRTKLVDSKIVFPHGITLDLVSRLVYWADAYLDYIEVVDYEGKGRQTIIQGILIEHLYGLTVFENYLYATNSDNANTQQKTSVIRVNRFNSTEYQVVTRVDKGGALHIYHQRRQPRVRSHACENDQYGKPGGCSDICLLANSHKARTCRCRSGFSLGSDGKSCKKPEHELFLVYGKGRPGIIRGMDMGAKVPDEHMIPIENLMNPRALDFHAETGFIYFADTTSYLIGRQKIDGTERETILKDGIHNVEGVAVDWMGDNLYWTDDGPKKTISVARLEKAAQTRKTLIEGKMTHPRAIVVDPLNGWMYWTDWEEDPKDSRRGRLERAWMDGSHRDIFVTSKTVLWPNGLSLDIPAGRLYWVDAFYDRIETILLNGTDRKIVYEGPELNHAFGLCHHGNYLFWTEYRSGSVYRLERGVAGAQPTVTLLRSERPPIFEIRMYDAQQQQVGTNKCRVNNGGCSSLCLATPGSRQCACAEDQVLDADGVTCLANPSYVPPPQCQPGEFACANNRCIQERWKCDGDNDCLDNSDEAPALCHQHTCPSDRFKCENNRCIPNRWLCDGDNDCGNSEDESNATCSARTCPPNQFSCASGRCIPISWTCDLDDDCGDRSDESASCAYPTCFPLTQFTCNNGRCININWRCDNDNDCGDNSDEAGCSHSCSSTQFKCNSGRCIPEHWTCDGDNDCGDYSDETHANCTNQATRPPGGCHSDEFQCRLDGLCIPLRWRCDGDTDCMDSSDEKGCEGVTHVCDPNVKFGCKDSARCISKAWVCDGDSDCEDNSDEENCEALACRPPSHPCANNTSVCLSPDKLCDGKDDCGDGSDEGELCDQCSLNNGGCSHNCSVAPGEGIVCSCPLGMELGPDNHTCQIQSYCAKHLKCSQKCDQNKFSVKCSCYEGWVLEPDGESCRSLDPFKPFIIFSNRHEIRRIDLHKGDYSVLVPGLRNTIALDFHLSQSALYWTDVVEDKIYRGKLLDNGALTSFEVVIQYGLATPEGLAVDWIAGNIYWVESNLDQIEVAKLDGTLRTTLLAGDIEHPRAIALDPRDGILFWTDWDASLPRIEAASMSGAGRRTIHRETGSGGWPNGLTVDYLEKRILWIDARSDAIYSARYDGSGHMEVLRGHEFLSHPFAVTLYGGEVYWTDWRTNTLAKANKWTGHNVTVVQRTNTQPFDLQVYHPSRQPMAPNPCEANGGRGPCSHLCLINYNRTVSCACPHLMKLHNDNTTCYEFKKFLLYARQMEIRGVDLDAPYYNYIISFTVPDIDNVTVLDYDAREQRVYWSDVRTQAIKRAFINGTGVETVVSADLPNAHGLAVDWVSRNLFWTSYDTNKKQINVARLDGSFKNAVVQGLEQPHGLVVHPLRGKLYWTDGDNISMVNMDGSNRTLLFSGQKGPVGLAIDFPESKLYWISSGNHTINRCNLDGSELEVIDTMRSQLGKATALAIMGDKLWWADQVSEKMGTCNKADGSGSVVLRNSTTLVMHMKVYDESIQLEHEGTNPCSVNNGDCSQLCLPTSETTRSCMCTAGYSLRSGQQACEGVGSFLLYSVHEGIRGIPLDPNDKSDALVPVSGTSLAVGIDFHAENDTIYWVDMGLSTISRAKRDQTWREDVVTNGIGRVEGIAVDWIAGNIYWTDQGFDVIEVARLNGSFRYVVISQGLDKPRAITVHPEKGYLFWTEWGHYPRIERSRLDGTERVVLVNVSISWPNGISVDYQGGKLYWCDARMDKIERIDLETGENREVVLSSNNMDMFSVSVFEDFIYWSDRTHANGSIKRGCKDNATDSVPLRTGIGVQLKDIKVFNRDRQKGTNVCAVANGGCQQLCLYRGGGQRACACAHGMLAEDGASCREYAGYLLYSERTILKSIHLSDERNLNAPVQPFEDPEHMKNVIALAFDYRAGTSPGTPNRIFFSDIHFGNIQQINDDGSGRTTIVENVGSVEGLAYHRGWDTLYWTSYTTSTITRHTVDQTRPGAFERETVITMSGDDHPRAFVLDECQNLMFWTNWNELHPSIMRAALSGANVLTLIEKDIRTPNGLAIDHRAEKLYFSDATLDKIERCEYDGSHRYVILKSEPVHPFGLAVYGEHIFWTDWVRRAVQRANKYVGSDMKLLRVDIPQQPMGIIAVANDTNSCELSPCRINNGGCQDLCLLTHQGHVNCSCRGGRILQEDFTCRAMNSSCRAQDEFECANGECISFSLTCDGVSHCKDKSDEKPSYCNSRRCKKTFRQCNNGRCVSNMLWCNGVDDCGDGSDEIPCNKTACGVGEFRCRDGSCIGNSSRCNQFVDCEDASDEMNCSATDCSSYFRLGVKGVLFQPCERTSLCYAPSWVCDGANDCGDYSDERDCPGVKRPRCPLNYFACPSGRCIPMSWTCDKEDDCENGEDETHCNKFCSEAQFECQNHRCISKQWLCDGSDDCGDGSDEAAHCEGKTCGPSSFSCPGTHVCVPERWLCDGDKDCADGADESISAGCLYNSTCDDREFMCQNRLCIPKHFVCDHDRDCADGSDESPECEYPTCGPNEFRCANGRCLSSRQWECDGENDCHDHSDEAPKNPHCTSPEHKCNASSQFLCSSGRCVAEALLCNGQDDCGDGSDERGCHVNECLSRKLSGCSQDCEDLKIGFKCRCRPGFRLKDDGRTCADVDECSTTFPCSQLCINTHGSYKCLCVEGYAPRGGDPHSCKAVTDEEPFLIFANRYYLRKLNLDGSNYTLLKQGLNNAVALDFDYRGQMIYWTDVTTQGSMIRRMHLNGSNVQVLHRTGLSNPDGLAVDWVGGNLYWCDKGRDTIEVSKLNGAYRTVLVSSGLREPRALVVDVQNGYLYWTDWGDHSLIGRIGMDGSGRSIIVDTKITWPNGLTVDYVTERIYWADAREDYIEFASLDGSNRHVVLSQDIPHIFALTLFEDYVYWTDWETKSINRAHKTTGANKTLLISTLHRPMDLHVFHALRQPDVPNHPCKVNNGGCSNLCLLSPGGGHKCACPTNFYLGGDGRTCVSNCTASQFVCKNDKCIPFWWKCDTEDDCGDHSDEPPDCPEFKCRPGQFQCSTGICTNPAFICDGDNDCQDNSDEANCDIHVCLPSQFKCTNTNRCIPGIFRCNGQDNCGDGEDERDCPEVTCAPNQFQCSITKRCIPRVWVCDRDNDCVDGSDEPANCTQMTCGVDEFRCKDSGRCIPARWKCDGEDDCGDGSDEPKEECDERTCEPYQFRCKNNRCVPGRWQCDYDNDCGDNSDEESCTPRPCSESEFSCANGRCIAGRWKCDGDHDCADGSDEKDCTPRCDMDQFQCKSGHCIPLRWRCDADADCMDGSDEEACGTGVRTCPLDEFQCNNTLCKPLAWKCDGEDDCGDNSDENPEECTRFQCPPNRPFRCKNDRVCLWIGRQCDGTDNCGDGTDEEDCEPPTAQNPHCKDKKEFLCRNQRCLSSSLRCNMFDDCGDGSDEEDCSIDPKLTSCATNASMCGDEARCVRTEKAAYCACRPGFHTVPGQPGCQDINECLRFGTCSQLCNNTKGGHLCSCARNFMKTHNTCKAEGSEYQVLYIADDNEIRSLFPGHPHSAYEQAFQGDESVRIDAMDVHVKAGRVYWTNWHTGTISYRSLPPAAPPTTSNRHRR

| percent of mouse collagenase-3 binding [1] | fold higher affinity compared to the low density lipoprotein receptor-related protein [2] | Kd [3] | Kd [4] | Kd [5] | Binder |
| --- | --- | --- | --- | --- | --- |
| 0% |  |  |  |  | H/M(229-472) chimeric collagenase (enzyme, 62 kDa; not shown: N-terminal 6×His purification tag of pET30) not shown |
| 15.3% |  |  |  |  | HM/M(141-472) chimeric collagenase (enzyme, 62 kDa; not shown: N-terminal 6×His purification tag of pET30) not shown |
| 99.4% |  |  |  |  | C-terminally truncated mouse collagenase-3, M(1-265) (enzyme, range 1-265; also called MMP-13 (1-265); truncated MMP-13; not shown: N-terminal 6×His purification tag of pET30) not shown |
| 100% | ~10 fold | 3.9 nM | 46.2 nM | 52.8 nM | recombinant mouse collagenase-3 (mMMP-13, residues 1-472) (enzyme, ^125I-labeled where used as tracer, not shown: N-terminal 6×His purification tag of pET30) not shown |

From patent publication US6403637 (dated 2002)
